# Where two headings read alike, the source gives them in different places. Starred links: 1 amine or outer side, 2 acyl side, 3 side chain; linkers in the order of their positions; H or OH if unused. Positions of bridges follow the written chain, without caps; N, C: chain ends. Non-standard residues stand in square brackets, D forms with d. Residues, ends and D or L forms follow the SMILES beside them. Chains are numbered I, II in the order given. ξ: configuration not given here. *: point of attachment. Dolaproine = CO[C@@H]([C@@H]1CCCN1)[C@@H](C)C(=O)O; Dil = CC[C@H](C)[C@H](NC)[C@@H](CC(=O)O)OC; TBMB = c1c(C[*:1])cc(C[*:3])cc1C[*:2]; X2 = O=C(CCCC(=O)[*:2])NCCC(=O)[*:1]; PABC = O=C(OCc1ccc(N[*:1])cc1)[*:2]; X1 = C[C@@H](N*)[C@@H](O)c1ccccc1; ξ1Nal = NC(Cc1cccc2ccccc12)C(=O)O; Cit = NC(=O)NCCC[C@H](N)C(=O)O; NMeV = CN[C@H](C(=O)O)C(C)C; ξY = NC(Cc1ccc(O)cc1)C(=O)O; ξTle = CC(C)(C)C(N)C(=O)O; ξF = NC(Cc1ccccc1)C(=O)O; ξE = NC(CCC(=O)O)C(=O)O; ξD = NC(CC(=O)O)C(=O)O; ξN = NC(=O)CC(N)C(=O)O; ξC = NC(CS)C(=O)O; ξA = CC(N)C(=O)O; Sar = CNCC(=O)O
# Tests used:
# [1] = Tolerability (body weight) in LU-01-0486 NSCLC PDX model; format: in vivo, mouse
# Experimental: (§1) All the procedures related to animal handling, care and the treatment in the study were performed following the guidance of the Association for Assessment and Accreditation of Laboratory Animal Care (AAALAC). At the time of routine monitoring, the animals were daily checked for any effects of tumor growth and treatments on normal behavior such as mobility, food and water consumption (by looking only), body weight gain/loss (body weights were measured twice weekly), eye/hair matting and any other abnormal effect as stated in the protocol. Death and observed clinical signs were recorded on the basis of the numbers of animals within each subset.
# [2] = tested on: NCI-H1975; assay: cells; settings: read-out: Re IC50; NCI-H1975; 72 hours
# Description: (§2) Details of the initial cell plating procedure are described in Table 3.
# (§3) Data Details for Tables 5 and 6. Inhibition %=(Max−Sample value)/(Max−Min)*100.
# (§4) The IC50 curves were generated by 4 Parameter Logistic Model—Sigmoidal Dose-Response Model as follows: Y=Bottom+(Top−Bottom)/(1+10^((log EC50-X)*HillSlope)).
# [3] = tested on: PC-3; assay: cells; settings: read-out: Re IC50; PC-3; 72 hours
# Description: as §2, §3, §4
# [4] = tested on: HT29; assay: cells; settings: read-out: Re IC50; HT29; 72 hours
# Description: as §2, §3, §4
# [5] = tested on: NCI-H292; assay: cells; settings: read-out: Re IC50; NCI-H292; 72 hours
# Description: as §2, §3, §4
# [6] = tested on: HCT15; assay: cells; settings: read-out: Re IC50; HCT15; 72 hours
# Description: as §2, §3, §4
# [7] = tested on: HT1080; assay: cells; settings: read-out: Re IC50; HT1080; 72 hours
# Description: as §2, §3, §4
# [8] = tested on: HCC1806; assay: cells; settings: read-out: Re IC50; HCC1806; 72 hours
# Description: as §2, §3, §4
# [9] = tested on: SNU-16; assay: cells; settings: read-out: Re IC50; SNU-16; 72 hours
# Description: as §2, §3, §4
# [10] = tested on: EBC-1; assay: cells; settings: read-out: Re IC50; EBC-1; 72 hours
# Description: as §2, §3, §4
# [11] = tested on: MOLP-8; assay: cells; settings: read-out: Re IC50; MOLP-8; 72 hours
# Description: as §2, §3, §4
# [12] = tested on: MDA-MB-231; assay: cells; settings: read-out: Re IC50; MDA-MB-231; 72 hours
# Description: as §2, §3, §4
# [13] = tested on: L540 cells; assay: Cytotoxicity in L540 cells in presence and absence of 1 mM bacitracin (ATPlite, 72 hour exposure); format: cell-based
# Experimental: L540 cells (DSMZ # ACC72, BIC5121), maintained in RPMI-1640 medium (Sigma # R8758)+20% heat-inactivated serum
# L540—20 k cells/well: 40% confluent upon dosing.
# Bacitracin=1 mM final concentration. This requires a 10 mM concentration with no DMSO.
# Add 100 μL reagent per well. […] Shake for 20 mins before reading luminescence
# [14] = Body weight of mice bearing EBC-1 xenograft (indirect measure of toxicity); format: in vivo, mouse
# Experimental: as §1, with “according to” for “following”, “guidelines” for “guidance”, “every day),” for “twice weekly),”
# Animal body weight was monitored regularly as an indirect measure of toxicity.
# [15] = Plasma stability (LC-MS/MS assay), human plasma; format: in vitro ADME; settings: pH 7.4 at 37° C.
# Experimental: I-1a plasma stability studies were conducted in human and mouse plasma.
# In vitro plasma stability assay measures the extent of degradation of compounds in plasma.
# Peptides or BDCs are incubated at 37° C. in plasma (mouse or human) at low micromolar concentrations for several hours. The stability is quantitatively measured by LC-MS/MS.
# Add 8 μL of the 160 μM DMSO stock of peptide or BDC and add 8 μL of 160 μM DMSO stock of 06-34-18-N182 as internal standard to 304 μL of plasma (152 μL*2) for a final concentration of 4 μM (5% DMSO).
# Incubate at 37° C. in 100% humidity.
# Pipette out 40 μL for 7 timepoints: time 0, 1 h, 2 h, 4 h, 6 h, 8 h, 24 h into a 1.5 mL Eppendorf. Store at −80° C. immediately. (total volume of samples?×40=280 μL).
# Add to the sample the extraction solvent. The extraction solvent contains 1 part of water, 3 parts of methanol, and 3 parts of acetonitrile.
# To the time course samples add 120 μL of extraction solvent, mix thoroughly with pipette and gently vortex.
# Centrifuge for 40 minutes at 14000 rpm at 4° C. […]
# It is recommend to follow one transition for the peptide of BDCs to study, and one transition for the internal standard 06-34-18-N182 at the same time. The most relevant Selected Ion Reaction (SIR) and Multiple Reaction Monitoring (MRM) transitions were determined for each peptide or BDC. […]
smiles,measurement,setting,value
CC[C@H](C)[C@@H]([C@@H](CC(=O)N1CCC[C@H]1[C@H](OC)[C@@H](C)C(=O)N[C@H](C)[C@@H](O)c1ccccc1)OC)N(C)C(=O)[C@@H](NC(=O)[C@H](C(C)C)N(C)C(=O)OCc1ccc(NC(=O)[C@H](CCCNC(N)=O)NC(=O)[C@@H](NC(=O)CCCC(=O)NCCC(=O)N(C)CC(=O)N(C)CC(=O)N(C)CC(=O)N(C)CC(=O)N(C)CC(=O)N(C)CC(=O)N(C)CC(=O)N(C)CC(=O)N(C)CC(=O)N(C)CC(=O)NC(C)C(=O)NC2CSCc3cc4cc(c3)CSCC(NC(=O)C(C)NC(=O)C(Cc3cccc5ccccc35)NC(=O)C(CCC(=O)O)NC(=O)C(CC(N)=O)NC(=O)C(C)NC2=O)C(=O)NC(CCC(=O)O)C(=O)NC(CC(=O)O)C(=O)NC(Cc2ccccc2)C(=O)NC(Cc2ccc(O)cc2)C(=O)NC(CC(=O)O)C(=O)NC(C(C)(C)C)C(=O)NC(C(N)=O)CSC4)C(C)C)cc1)C(C)C (stereo partly shown) [Compound I-1a] (I: [Sar][Sar][Sar][Sar][Sar][Sar][Sar][Sar][Sar][Sar][ξA][ξC][ξA][ξN][ξE][ξ1Nal][ξA][ξC][ξE][ξD][ξF][ξY][ξD][ξTle][ξC]-NH2 / II: V[Cit][PABC][NMeV]V[Dil][Dolaproine]-X1; linker I:12-I:18-I:25 via TBMB; linker I:N-II:N via X2),effect on body weight (in words),[1]; 1 mg/kg,no significant effect on body weight
same,effect on body weight (in words),[1]; 3 mg/kg,without significant effect on body weight
same,IC50,[2],24.2 nM
same,IC50,[3],102 nM
same,IC50,[4],219 nM
same,IC50,[5],56.2 nM
same,IC50,[6],> 5000 nM
same,IC50,[7],21.4 nM
same,IC50,[8],15.2 nM
same,IC50,[9],63.3 nM
same,IC50,[10],35.7 nM
same,IC50,[11],197 nM
same,IC50,[12],211 nM
same,IC50,"[13]; 72 hour exposure (low/no MT1 expression), no block, read-out: Standard IC50",1090 nM
same,Fold shift with bacitracin,"[13]; 72 hour exposure, 1 mM bacitracin vs none",2.3
same,IC50,"[13]; read-out: IC50 with 1 mM bacitracin, 72 hour exposure, + 1 mM bacitracin",2550 nM
same,Body Weight,"[14]; 1 mg/kg i.v. tiw x2 w, day 0",23.4 g
same,Body Weight,"[14]; 1 mg/kg i.v. tiw x2 w, day 2",23.3 g
same,Body Weight,"[14]; 1 mg/kg i.v. tiw x2 w, day 4",23.6 g
same,Body Weight,"[14]; 1 mg/kg i.v. tiw x2 w, day 7",23.8 g
same,Body Weight,"[14]; 1 mg/kg i.v. tiw x2 w, day 9",24.0 g
same,Body Weight,"[14]; 1 mg/kg i.v. tiw x2 w, day 11",24.0 g
same,Body Weight,"[14]; 1 mg/kg i.v. tiw x2 w, day 14",23.8 g
same,Body Weight,"[14]; 3 mg/kg i.v. tiw x2 w, day 0",21.9 g
same,Body Weight,"[14]; 3 mg/kg i.v. tiw x2 w, day 2",21.4 g
same,Body Weight,"[14]; 3 mg/kg i.v. tiw x2 w, day 4",21.7 g
same,Body Weight,"[14]; 3 mg/kg i.v. tiw x2 w, day 7",22.3 g
same,Body Weight,"[14]; 3 mg/kg i.v. tiw x2 w, day 9",22.4 g
same,Body Weight,"[14]; 3 mg/kg i.v. tiw x2 w, day 11",22.0 g
same,Body Weight,"[14]; 3 mg/kg i.v. tiw x2 w, day 14",22.0 g
same,Body Weight,"[14]; 10 mg/kg i.v. tiw x2 w, day 0",23.1 g
same,Body Weight,"[14]; 10 mg/kg i.v. tiw x2 w, day 2",21.8 g
same,Body Weight,"[14]; 10 mg/kg i.v. tiw x2 w, day 4",20.8 g
same,Body Weight,"[14]; 10 mg/kg i.v. tiw x2 w, day 7",19.3 g
same,Body Weight,"[14]; 10 mg/kg i.v. tiw x2 w, day 9",22.0 g
same,Body Weight,"[14]; 10 mg/kg i.v. tiw x2 w, day 11",20.6 g
same,Body Weight,"[14]; 10 mg/kg i.v. tiw x2 w, day 14",22.4 g
same,effect on body weight (in words),"[14]; 10 mg/kg, 3× weekly schedule for two weeks",brief body weight loss which is reversible upon discontinuation of treatment
same,half-life at 1 μM,[15],> 24 h
same,"remaining at 24 h, 1 μM",[15]; read-out: % remained after 24 hours incubation,96%
